For this assay, the target named is T1, human P-cadherin (CDH3) expressed on cancer cell lines HCT116, H1975 and CAL27 (human, UniProt P22223 108-829).
T1 construct: whole, on cells
Description: flow cytometry on H1975, HCT116 and CAL27 cells, MFI fold over background. The source says: Human P-cadherin (CDH3)-expressing cancer cell lines, HCT116, H1975 and CAL27, were used to assess tumor antigen binding of multi-specific binding proteins having a P-cadherin (CDH3) binding site comprising a heavy chain variable domain sequence identical to SEQ ID NO:196 and a light chain variable domain sequence identical to SEQ ID NO:200 (D153 DB), or a P-cadherin (CDH3) binding site comprising a heavy chain variable domain sequence identical to SEQ ID NO:188 and a light chain variable domain sequence identical to SEQ ID NO:192 (TSP7 DB). Multi-specific binding proteins or corresponding monoclonal antibodies (mAb) having the same P-cadherin (CDH3) binding site were diluted and incubated with the cells. Binding was detected using a fluorophore conjugated anti-human IgG secondary antibody. Cells were analyzed by flow cytometry and binding was expressed as mean fluorescence intensity (MFI) normalized to human recombinant IgG1 stained controls to obtain fold over background (FOB) values.
On the technique in general: Flow cytometry measures light scatter and fluorescence of single cells or particles in a stream.

From patent publication US20210238290A1 (DRAGONFLY THERAPEUTICS, published 2021) come the findings set out here.

T1 sequence (P22223 108-829): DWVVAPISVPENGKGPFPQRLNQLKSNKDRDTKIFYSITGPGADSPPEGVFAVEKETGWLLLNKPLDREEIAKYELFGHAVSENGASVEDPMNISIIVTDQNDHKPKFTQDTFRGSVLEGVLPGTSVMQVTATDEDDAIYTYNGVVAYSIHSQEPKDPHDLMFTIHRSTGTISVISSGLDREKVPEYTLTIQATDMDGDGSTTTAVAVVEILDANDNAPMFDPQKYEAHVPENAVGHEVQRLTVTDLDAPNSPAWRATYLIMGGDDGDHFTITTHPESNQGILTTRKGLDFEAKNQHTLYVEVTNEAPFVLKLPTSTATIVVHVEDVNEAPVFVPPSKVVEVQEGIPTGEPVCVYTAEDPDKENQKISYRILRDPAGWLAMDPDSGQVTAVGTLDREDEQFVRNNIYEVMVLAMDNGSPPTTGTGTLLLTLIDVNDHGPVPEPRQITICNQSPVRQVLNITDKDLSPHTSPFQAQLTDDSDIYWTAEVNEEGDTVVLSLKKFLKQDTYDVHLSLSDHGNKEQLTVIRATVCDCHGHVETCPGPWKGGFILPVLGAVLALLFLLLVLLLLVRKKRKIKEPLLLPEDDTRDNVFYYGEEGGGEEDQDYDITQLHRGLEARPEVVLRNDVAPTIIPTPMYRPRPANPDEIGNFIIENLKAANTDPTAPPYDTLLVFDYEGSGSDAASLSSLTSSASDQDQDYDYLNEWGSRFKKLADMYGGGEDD

B1: anti-P-cadherin mAb (TSP7 wt mAb) (antibody, V domains shown)
VH: QVQLQESGPELVKPGASVKMSCKASGYSFTAYNMHWVKQSHGKSLEWIGFIDPYSGIITYNQTFKGKATLTVDKSSSTAYMQLNSLTSEDSAVYYCARRGYYDGGFDYWGQGTTLTVSS
VL: DIQMTQTTSSLSASLGDRVTISCRASQDITNYLNWYQQKPDGTVKLLIYYTSRLHSGVPSRFSGSGSGTDYSLTISNLEQEDIATYFCQQDSKHPRTFGGGTKLEIK
notes: it was detected with an anti-human IgG secondary antibody; also called TSP7 mAb
With B1, the binding result is “binds”.

B2: anti-P-cadherin mAb (D153 wt mAb) (antibody, V domains shown)
VH: EVQLVQSGAEVKKPGASVKVSCKASGYTFTSYGISWVRQAPGQGLEWMGWISAYNGNTNYAQKLQGRVTMTTDTSTSTAYMELRSLRSDDTAVYYCATIDTANAFGIWGQGTMVTVSS
VL: QSVLTQPPSVSAAPGQKVTISCSGSSSNIGNNYVSWYQQLPGTAPKLLIYDNNKRPSGIPDRFSGSKSGTSATLGITGLQTGDEADYYCGTWDSSLSGVVFGGGTKLTVL
notes: it was detected with an anti-human IgG secondary antibody; also called D153 mAb
Turning to B2, the binding result was “binds”.
